The text below walks through data of the nanobody polyreactivity screen of Harvey et al. (2022).

This data set is described as follows: yeast display, Sf9 membrane polyspecificity reagent, FACS + sequencing; frameworks hold sequencing errors. A digest of the protocol: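 Using colony PCR, genes from sorted yeast display clones were amplified, then sequenced on MiSeq at 2 × 250 and filtered by CDR length. The clones had been stained with 10% biotinylated, detergent-solubilized Sf9 membrane reagent for 1 hour at 4 °C and sorted by FACS into low and high (top ~1%) gates on anti-HA and streptavidin fluorescence. Polyreactivity labels come from the gate of origin.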
“QVQLQESGGDLEQAGGSLRLSCTASGTISDVRDMGWYRQAPGKERELVATISYVTITYYSDSVKGRFTISRASEKHRVSADDEPETGRYRGVLLRYYWGLGTQVTVSS”: the “polyreactivity (PSR sort gate)” value is listed as “low polyreactivity”.
Next, “QVQLQESGGDLEQAGGSLRLSCTASGTISDVRVMGWYRQAPGKERELVATISYVTITYYADSVKGRFTISRDSEKHRVSADDEPESGRYRGVLLRYYWGLGTQVTVSS”: “low polyreactivity”; “QVQLQESGGGLEHAGGSLRLSCAASGNIFLSIFMGWYRQAPGKEREFVAGIGSGTNTNYADSVKGRFTISRDNANNTVYLQMNSLKPEDTAVYYCNAVWGSHYPTYAKLSRDYWGQGTQVTVSS”: “high polyreactivity”.
Turning to “QVQLQESGGGLEQAGGCLRLSCAASGSIFTYAVMGWYRQAHGKEHELVATIDTGSSTYYADSVKGRISISRDNAKNTLYLQMNSLKPEDTEVYYCAVNTYCRVRYRYWVQGTQVTVSS”, the “polyreactivity (PSR sort gate)” value was “high polyreactivity”.
Next, “QVQLQESGGGLEQAGGDLRLSCAASGNIFRDYIMGWYRQAPGKEREFVAGIDRGANTNYADSVKGRFTISRDNAKNTVYLQMNSLKPEDTAVYYCAVHTAIVADFIYWGQGTQVTVSS”: “low polyreactivity”; “QVQLQESGGGLEQAGGSLRLSCAASGIIFDNPNMGWYRQAPGKERELVATINSGATTNYADSVKGRFTISRDNAKNTVYLQMNSLIPEDTAVYYCAVDLSPTYFYYWGQGTQVTVSS”: “high polyreactivity”.
For “QVQLQESGGGLEQAGGSLRLSCAASGYISHIGTMGWYRQAPGKEREFVATIVVGSTTNYADSVKRRFTISRDNAKNTVYLQPESGRYRGVLLRGWLLAVGKFTYWGQGTQETVSS”, the “polyreactivity (PSR sort gate)” value is “low polyreactivity”.
As to “QVQLQESGGGLEQAGGSLRLSCAESGIIFDNPNMGWYRQAPGKERELVATINSGATTNYADSVKGRFTISRDNAKNTVYLQMNSLIPEDTAVYYCSVDLSPTYFYVWGQGTQVTVSS”, the “polyreactivity (PSR sort gate)” value is listed as “high polyreactivity”.
Next, “QVQLQESGGGLLQAGGSLRLSCAASGSISQYIFMGWYRQAPGKEREFVAGIGYGGTTNYADSVTGRFTISRDNAKNTVYLQMNSLKPEDTAMYYCSAREATEFYLYYWGQGTQVTVSS”: “low polyreactivity”; “QVQLQESGGGLMQAGGNLRLSCAASGYISTHYDMDWSRQAPGKERELVARIDDGAITNYADSVKGRFTISRDNATNTVYLQMNSLKPEDTAVYYCAVYSGDDYYHDYWGQGTQVTVSS”: “low polyreactivity”.
As for “QVQLQESGGGLMQAGGNLRLSCAASGYISTHYYMHWYRQAPGKERELVARIDDGAITNYADSVKGRFTISRDNAKNTVYLLMNSLKPEDTAVYYCAVYSGDDYYHDFWGQGTKVTVSS”, the “polyreactivity (PSR sort gate)” value is “low polyreactivity”.
For “QVQLQESGGGLVHACGSLRPSCAASGSISDSWTMSWYRQAPGKEREFVAGITWGGTTNYADSVKGRFTISRDNAKNTVYLQMNSLKPEDSAVYYCNARQRTYYRTHRIRHKGNGYWGQGTQVTVSS”, the “polyreactivity (PSR sort gate)” value is listed as “low polyreactivity”.
In the case of “QVQLQESGGGLVKAGGDLRLSCAASGNIFRDYIMGWYRQAPGKEREFVAGIDRGANTNYADSVKGRFTISRDNAKNTVYLQMNSLKPVDTAVYYCGVHTAIVPDFIYWGQGTQVTVSS”, the “polyreactivity (PSR sort gate)” value is given as “low polyreactivity”.
On to “QVQLQESGGGLVLAGGSLRLSCAASGSISAQAYMGWDRQAPGKEREHVAGINYGDNTNYADSVKGRFTISRDNEHRVSADEQPETGRYRVVLLRGFLELFYYYIYWGQGTQVTVSS”, for which the “polyreactivity (PSR sort gate)” value is “high polyreactivity”.
In the case of “QVQLQESGGGLVQAGGCLRLRCAASRNISGSSDLGWYHQAPGKEREFVASMTSGGTTYYADSVKGRFTISRDNAKYTVYLQMKSQKTEDTAVYYCAVGDPADAEFGYWGQGTQVTVSS”, the “polyreactivity (PSR sort gate)” value is “low polyreactivity”.
Next, “QVQLQESGGGLVQAGGCLRLSCAASGSIFDPDYMGWYHQAPGKESELVASISLGRITYYADSVKGRFTINRDNAKNTVYLQMNSLKPEDTAVYYCAVRVETIYYYSYWGQGTQVTVSS”: “high polyreactivity”; “QVQLQESGGGLVQAGGRLPMSFAASGNIFDADIMGWYRQAPGKERELVASITDGRRTNYADSVKGRYTTSRDSEKNTVYLQMNSLKPEDTAVYYCAAIAYPVVPTYFDYDSDYFHWGQGTQVTVSS”: “high polyreactivity”.
As to “QVQLQESGGGLVQAGGSLCLSCAASGTIFFDRDMGWYRQAPGKEREFVAAINPGGSAYYADSVKGRLPLAAITHTVYLQRNSLKPEVTAVYYCAAKLFDVYGYYYWGQGTDVTVSS”, the “polyreactivity (PSR sort gate)” value was “low polyreactivity”.
As to “QVQLQESGGGLVQAGGSLGCAASGNISTRSEMGWYRQAPGKDREFVATINSGGITNYADSVNGRFTISRDNAKKTVYLRMNSLKTEDTAVYYRAVFGYLSDPNDYCGQGTQVTVSS”, the “polyreactivity (PSR sort gate)” value is listed as “low polyreactivity”.
The value for “QVQLQESGGGLVQAGGSLLSCAASGTISWVDEMGWYRQAPGNERELVAGIAGGGNTNYADSVKGRFTISRDNAKNTVYLQMNSLDTAVYYCAGWDYTGNVVTGDYWGQGTQVTVSS” was “high polyreactivity”; that for “QVQLQESGGGLVQAGGSLLSCAASGTISYYREMGWSRQSPGKQRELVAGIGVGTITYYADSVKGRFTISRDNAKKTVFLQMNSLNPEDTAVYYCAAHIDGNDSHAYWGQGTQVTVSS” was “low polyreactivity”; that for “QVQLQESGGGLVQAGGSLRKSCAASGYIFTQYGMGWYRQGPGKERKFVATISYGGNTNYADSVKGRFTISRDNAKNTVYLQLNSLKPEDTAVYSCATKSVGYRKYWSGDIYDYWGQGTQVTVSS” was “low polyreactivity”.
Regarding “QVQLQESGGGLVQAGGSLRLICAASGTISTDSYMGWYRQAPGKERKFVATIGYGGITYYADSVNGRSTISRDSAKNTVYLQMNSLKPDDTAVYYCEVNSYYPYHYWYWGRGTQVTVSS”, the “polyreactivity (PSR sort gate)” value is on record as “high polyreactivity”.
With “QVQLQESGGGLVQAGGSLRLRCAASGSISRLDYMGWYRQASGKELELVAAIDNGSTTYYADSVKGRLTISRDNEKYTVYLKMNSLKPEDTAVYFCAAVRGRGGTHAYWGQGTQVTVSG”, the “polyreactivity (PSR sort gate)” value is given as “low polyreactivity”.
Turning to “QVQLQESGGGLVQAGGSLRLSCAARGSICLDQPMGWYRQSPCKDPELVATIGQGGNTNYADSVKGRFTISRDNEKNTVYLYMTSLKPEDTAVYYCAVVYFYNYAYHYYWGQGTQVTVCS”, the “polyreactivity (PSR sort gate)” value was “low polyreactivity”.
“QVQLQESGGGLVQAGGSLRLSCAASCTISQEDCMGWYRQAPGKVREFVAAIGLGSNTNYADSLKGRFTISRDNAKNTVYLQMNRLKPEDTAVYYCAVSVWQYSDHVYRGQGTQVTVSS”: the “polyreactivity (PSR sort gate)” value was “low polyreactivity”.
Turning to “QVQLQESGGGLVQAGGSLRLSCAASGDNLEADDMGWYRQAPGKERELVASITDGGSTNCADSMKGRSTICRDNAKITVYLQMNSLKLEDTAVYYCAAIAYPDVPTYFDYDSDYFYWGQGTLVTVSS”, the “polyreactivity (PSR sort gate)” value is on record as “high polyreactivity”.
For “QVQLQESGGGLVQAGGSLRLSCAASGNIFLGDTMGWYRQAPGKEREFVAGIARGGNPYYADSVKGRFTISRNNAKNTVYLQKNSLKAEDTAVHYCAVQRSHASDYNYWGQGTQVTVSS”, the “polyreactivity (PSR sort gate)” value was “low polyreactivity”.
Next, “QVQLQESGGGLVQAGGSLRLSCAASGSIANLIAKGWSRQAQRKEREFVAAIGPGANTNYADSVKGRFTISRDNANNTVYRQMNSLKPEDTAVYYCAVDYYGEAVYHYWGQGTQVTVSS”: “high polyreactivity”.
As for “QVQLQESGGGLVQAGGSLRLSCAASGSIFDGFYMGWYRQAPGKEREFVAAISYGASTYYADSVKGRFTVSRDNAKNSVYLQMNSLKPEDTAVYYCAVYDELYHVLVYWGRGTQVTVSS”, the “polyreactivity (PSR sort gate)” value was “low polyreactivity”.
With “QVQLQESGGGLVQAGGSLRLSCAASGSIFDYVSMGWYRQAPGEERELVVTITLGSNTYYADSVKGRFTISSDIAKNTVYLQMNSLNPVDTAVYYCAASALWGYVYPYWGLGTQVTVSS”, the “polyreactivity (PSR sort gate)” value is given as “high polyreactivity”.
As to “QVQLQESGGGLVQAGGSLRLSCAASGSIFLFYTMGWYRQAPVKEREFVAGITLGTTTYNADSVKGRFTISRDNVKNTVYLQMNSLKPEDTAVYYCAVAVGHYTEFWYWGQGTQVTMSS”, the “polyreactivity (PSR sort gate)” value is “high polyreactivity”.
On to “QVQLQESGGGLVQAGGSLRLSCAASGSIFVSVTMGWYRPAPGKERELVASIGRGSTTNHADSVKGRFTISRDNAKNIVYLLMNSLKPEDTAVYYCAALESYGKYHGYWGQGTQVTVSS”, for which the “polyreactivity (PSR sort gate)” value is on record as “low polyreactivity”.
In the case of “QVQLQESGGGLVQAGGSLRLSCAASGSIFVSVTMGWYRQAPGKERELVASIGRGSTTNHADSVKGRFTISRDNAKNIVYLLMNSLKPEDTAVYYCAALESYGKYHGYWGQGTQVTVCS”, the “polyreactivity (PSR sort gate)” value was “low polyreactivity”.
Take “QVQLQESGGGLVQAGGSLRLSCAASGSIFYKDDMGWYRQAPGKEREFVAGIDRGGTTNCAGSVKGRFTISRDNAKNTVYLQMISLKPEDTAVYYCAAYYPDIYPFIYRGQGTQVTVSS”: the “polyreactivity (PSR sort gate)” value is given as “high polyreactivity”.
Regarding “QVQLQESGGGLVQAGGSLRLSCAASGSIFYVYGMGWYRQAPGKERELVAVINAGTNTNYADSVRGRFTISRDNAINSVLLQMNSLKPEDTAVYYCADDGNGYQAHEYWGQGNQVTVSS”, the “polyreactivity (PSR sort gate)” value is “high polyreactivity”.
On to “QVQLQESGGGLVQAGGSLRLSCAASGSISRYYDMGWYRQAPGKEREFVAGISGGAITYYADSVKGRFTISRDNAKNTVDLQMNSLKPQDTAVYYCAADTGVYQYHSYWGQGTQVTVSS”, for which the “polyreactivity (PSR sort gate)” value is reported as “low polyreactivity”.
Regarding “QVQLQESGGGLVQAGGSLRLSCAASGSISRYYDMGWYRQAPGKEREFVAGISGGAITYYADSVKGRFTISRDNAKNTVYLQMNSLKPEDTAVYYCAADPGVYQYHSYWGQGTQVTVSS”, the “polyreactivity (PSR sort gate)” value is “low polyreactivity”.
As for “QVQLQESGGGLVQAGGSLRLSCAASGSISRYYDMGWYRQAPGTEREFVAGISGGAITYYADRVKGRFTISRDNAKNTVYLQMNSLKPEDTAVDYCAADTGVYLYHSYWGQGTQVTVSS”, the “polyreactivity (PSR sort gate)” value is given as “low polyreactivity”.
“QVQLQESGGGLVQAGGSLRLSCAASGSISYPRTMGWYRQAPGKEREFVAGIGVGGTTYYADSVKGRFTISRDNAKNTVYLQMHSLKPEDAAVFYFAVAAFYDKYYVYWGQGTQVTVSC”: the “polyreactivity (PSR sort gate)” value is given as “low polyreactivity”.
Next, “QVQLQESGGGLVQAGGSLRLSCAASGSIYDDTYMGWYRQAPGKERELVATIDSGSTTNYADSVKGRITISRDNAKNTVYLQMNSLKPEDTGVYYCAAADSHIDYFDYWGQGTQVTVSS”: “low polyreactivity”.
